The record followed here is publication doi:10.1101/2021.11.05.467508v1.

Sequences and labels used below:
B1: ΔN1 (Oryza sativa Indica Group) (protein)
chain: KHLVVFTGAGISTSSGIPDFRGPKGVWTLQRSGKGVPGASLPFHRAVPTLTHMALVELEKTGRLKFVISQNVDSLHLRSGLPREKLAELHGNSFKEICPSCKKEYLRDFEIETIGLKDTPRRCSDKNCGARLKDTVLDWEDALPPEEMDAAKEQCQTADLVLCLGTSLQITPACNMPLLSLKNGGRVAIVNLQATPKDKKASLVIHGLVDKVIAGVMYMMNLRIPPYIRTDFVQISLRNSVKKKCVRWTLRVTSIHGLRAPLPFLRSVEVSFPERPDMKPVVLKEQPFSLQRETSMNRPFVMLLTFNFSDGCGCSSSSIEWPVDFLKQKDSFVRDRSLVLQELQHAAEHRSRAGQHAILEREGVPRAETSIHALVTNIVRYDTEDSKAAVPMATWMNSNGSLSKRHMDAIGCNPASSKKQKLVATRHRRKGLNPATQKV
B2: OsSRT1_cc (CC) (Oryza sativa Indica Group) (protein)
chain: KHLVVFTGAGISTSSGIPDFRGPKGVWTLQRSGKGVPGASLPFHRAVPTLTHMALVELEKTGRLKFVISQNVDSLHLRSGLPREKLAELHGNSFKEICPSCKKEYLRDFEIETIGLKDTPRRCSDKNCGARLKDTVLDWEDALPPEEMDAAKEQCQTADLVLCLGTSLQITPACNMPLLSLKNGGRVAIVNLQATPKDKKASLVIHGLVDK
B3: ΔC1 (Oryza sativa Indica Group) (protein)
chain: MSLGYAEKLSYREDVGNVGMPEIFDSPELLHKKIEELAVMVRESKHLVVFTGAGISTSSGIPDFRGPKGVWTLQRSGKGVPGASLPFHRAVPTLTHMALVELEKTGRLKFVISQNVDSLHLRSGLPREKLAELHGNSFKEICPSCKKEYLRDFEIETIGLKDTPRRCSDKNCGARLKDTVLDWEDALPPEEMDAAKEQCQTADLVLCLGTSLQITPACNMPLLSLKNGGRVAIVNLQATPKDKKASLVIHGLVDK

Substrate in the data set: NC(=O)c1ccc[n+]([C@@H]2O[C@H](COP(=O)(O)OP(=O)(O)OC[C@H]3O[C@@H](n4cnc5c(N)ncnc54)[C@H](O)[C@@H]3O)[C@@H](O)[C@H]2O)c1
Kind of data set: dot blot saturation kinetics, Michaelis-Menten fit. Type of data set: biochemical, Oryza sativa. To be noted: H3K9Ac of histone H3 (constant), 0-600 μM NAD+, pH 7.5, 37 °C.
A word on the Km: it is the concentration of substrate that gives half-maximal velocity. By kcat is commonly meant the number of substrate molecules converted per active site and unit of time at saturation. Take B1: the Km worked out at 175 ± 27 µM and the kcat was determined as 0.0617 ± 0.00367 s⁻¹.

On to B2, for which the Km was determined as 256 ± 21 µM and the kcat was determined as 0.03432 ± 0.00127 s⁻¹.

For the protein B3, the Michaelis-Menten constant (Km) amounted to 299 ± 43 µM and the catalytic constant (kcat) was 0.02 ± 0.0014 s⁻¹.
